# Laboratory results: patent US11203633B2, “Polynucleotides encoding antibodies or antigen binding fragments thereof that bind pseudomonas perv” (priority 2011, dated 2021)
# B1: WapR-004: anti-Psl human IgG1 monoclonal antibody; VH SEQ ID NO:11, VL SEQ ID NO:12 (antibody, V domains shown)
# VH: EVQLLESGPGLVKPSETLSLTCNVAGGSISPYYWTWIRQPPGKGLELIGYIHSSGYTDYNPSLKSRVTISGDTSKKQFSLHVSSVTAADTAVYFCARGDWDLLHALDIWGQGTLVTVSS
# VL: EIVLTQSPSSLSTSVGDRVTITCRASQSIRSHLNWYQQKPGKAPKLLIYGASNLQSGVPSRFSGSGSGTDFTLTISSLQPEDFATYYCQQSYSFPLTFGGGTKLEIK
# modifications: human IgG1 constant regions not cited; WapR-004 VH; WapR-004 & WarR-004RAD VL
# Key:
# [1] = system: P. aeruginosa strains (PAO1, 33356, 6294, 6077, 6206, PA103A); assay: Acute pneumonia model in mice, survival; assay type: in vivo, Pseudomonas aeruginosa; conditions: strain 6077 (O11) 8×10^5 or 6×10^5 CFU; 5 and 1 mg/kg; FIG. 6E-F
# Description: (§1) Antibodies or PBS were administered 24 hours before infection in each model. P. aeruginosa acute pneumonia, keratitis, and thermal injury infection models were performed as described (DiGiandomenico, A., et al., Proc Natl Acad Sci USA 104, 4624-4629 (2007)), with modifications. In the acute pneumonia model, BALB/c mice (The Jackson Laboratory) were infected with P. aeruginosa strains suspended in a 0.05 ml inoculum. In the thermal injury model, CF-1 mice (Charles River) received a 10% total body surface area burn with a metal brand heated to 92° C. for 10 seconds. Animals were infected subcutaneously with P. aeruginosa strain 6077 at the indicated dose. For organ burden experiments, acute pneumonia was induced in mice followed by harvesting of lungs, spleens, and kidneys 24 hours post-infection for determination of CFU.
# The in vivo effect of administration of an anti-PcrV antibodies was studied in mice using an acute pneumonia model. Groups of mice were treated with either increasing concentrations of the V2L2 antibody, a positive control anti-PcrV antibody (mAb166), or a negative control (R347), as shown in FIG. 13 (A-B). Groups of mice were also treated with either increasing concentrations of the V2L2 antibody, the PcrV antibody PcrV-02, or a negative control (R347), as shown in FIG. 13 (C-D). Twenty-four hours after treatment, all mice were infected with 5×10^7 CFU (C) Pseudomonas aeruginosa 6294 (06) or (D) PA103A (O11).
# Groups of mice were treated with either increasing concentrations of the 11A6, 3G5 or V2L7, the same concentrations of 29D2, 1F3, 1E6, V2L2, LE10, SH3, 4A8, 2H3, or 21F1, increasing concentrations of the 29D2, increasing concentrations of the V2L2, the PcrV antibody PcrV-02, or a negative control (R347), as shown in FIG. 13 (E-H). Mice were injected intraperitoneally (IP) with mAbs 24 hours prior to intranasal infection with Pseudomonas strain 6077 (1×10^6 CFU/animal).
# [2] = system: luminescent P. aeruginosa serogroup 011 strain (9882-80.lux); assay: OPK assay, 9882-80.lux; assay type: cell-based, Pseudomonas aeruginosa; conditions: strain 9882-80 (O11); FIG. 2B
# Description: (§2) This example describes the evaluation of prioritized human IgG1 antibodies to promote OPK of P. aeruginosa. […] OPK assays were performed as described in (DiGiandomenico, A., et al., Infect Immun 72, 7012-7021 (2004)), with modifications. Briefly, assays were performed in 96-well plates using 0.025 ml of each OPK component; P. aeruginosa strains; diluted baby rabbit serum; differentiated HL-60 cells; and monoclonal antibody. In some OPK assays, luminescent P. aeruginosa strains, which were constructed as described (Choi, K. H., et al., Nat Methods 2, 443-448 (2005)), were used. Luminescent OPK assays were performed as described above but with determination of relative luciferase units (RLUs) using a Perkin Elmer ENVISION Multilabel plate reader (Perkin Elmer).
# The ability of the WapR-004 and Cam-003 antibodies to mediate OPK activity against another clinically relevant 0-antigen serotype strain, 9882-80.lux, was evaluated.
# [3] = system: P. aeruginosa strains (PAO1, 33356, 6294, 6077, 6206); assay: Acute pneumonia model in mice, organ burden (CFU in lung, spleen, kidneys); assay type: in vivo, Pseudomonas aeruginosa
# Description: as §1
# Organ burden of Pseudomonas-infected mice was also studied in response to administration of V2L2. FIG. 14 (A) Mice were treated with either 1 mg/kg R347 (control), or 1 mg/kg, 0.2 mg/kg, or 0.07 mg/kg of V2L2 and then were infected intranasally with 1.2×10^6 cfu of Pseudomonas 6206. FIG. 14 (B) Mice were also treated with either 15 mg/kg R347 (negative control); 15.0 mg/kg, 5.0 mg/kg, or 1.0 mg/kg mAb166 (positive control); or 5.0 mg/kg, 1.0 mg/kg, or 0.2 mg/kg V2L2 and then were infected intranasally with 5.5×10^6 cfu of Pseudomonas 6206.
# The in vivo effect of combination administration of anti-Psl and anti-PcrV binding domains was further studied in mice using the antibodies V2L2 and WapR-004 (RAD). Groups of mice were treated with R347 (2.1 mg/kg—negative control), V2L2 (0.1 mg/kg), W4-RAD (0.5 mg/kg), or V2L2/W4 combination (either 0.1, 0.5, 1.0 or 2.0 mg/kg each). Twenty-four hours post-administration of antibody, all mice were infected with an inoculum containing 5.25×10^5 cfu 6206 (O11-ExoU+). Twenty-four hours post infection, lungs, spleens, and kidneys were harvested, homogenized, and plated for colony forming unit (CFU) identification per gram of tissue.
# [4] = system: luminescent P. aeruginosa serogroup 05 strain (PAO1.lux); assay: Opsonophagocytic killing (OPK) assay, PAO1.lux; assay type: cell-based, Pseudomonas aeruginosa; conditions: purified human IgG1 mAbs from phage panning; FIG. 2A
# Description: as §2
# [5] = system: P. aeruginosa strains 6206 and 6294; assay: Acute pneumonia model in mice, histological examination of lung tissue; assay type: in vivo, Pseudomonas aeruginosa
# [6] = system: P. aeruginosa strain 6077 (O11-cytotoxic); assay: Corneal infection (ocular keratitis) model in mice; assay type: in vivo, Pseudomonas aeruginosa
# [7] = 6294 (06) and 6206 (O11), FIG. 7E-F
# [8] = Table 5, 6206 5.25×10^5 cfu, R347 2.1 mg/kg, V2L2 0.1 mg/kg, WapR-004 0.5 mg/kg
# [9] = Table 6A, strain 6294 1.33×10^7 CFU, 0.2 mg/kg (combination 0.1 mg/kg ea)
# [10] = Table 6B, strain 6294 1.7×10^7 CFU, 0.2 mg/kg (combination 0.1 mg/kg ea)
# [11] = Table 7, strain 6206 9.25×10^5 CFU, 0.2 mg/kg (combination 0.1 mg/kg ea)
molecule,measurement,setting,value
B1,survival,[1],significant concentration-dependent survival
same,OPK activity,[2],OPK activity extends to strain 9882-80 (O11)
same,organ burden,"[3]; 6206 (O11-ExoU+) 5.25×10^5 cfu, V2L2 0.1 mg/kg, W4-RAD 0.5 mg/kg, FIG. 15",effective in lowering organ burden
same,"viable CFU vs. R347, Mann-Whitney U-test P","[3]; 6206, kidney, 5 mg/kg, FIG. 7F",0.0268
same,"viable CFU vs. R347, Mann-Whitney U-test P","[3]; 6206, kidney, 15 mg/kg, FIG. 7F",0.0208
same,"viable CFU vs. R347, Mann-Whitney U-test P","[3]; 6206, lung, 1 mg/kg, FIG. 7F",0.0079
same,"viable CFU vs. R347, Mann-Whitney U-test P","[3]; 6206, lung, 5 mg/kg, FIG. 7F",0.0006
same,"viable CFU vs. R347, Mann-Whitney U-test P","[3]; 6206, spleen, 1 mg/kg, FIG. 7F",0.0047
same,"viable CFU vs. R347, Mann-Whitney U-test P","[3]; 6206, spleen, 5 mg/kg, FIG. 7F",0.0261
same,"viable CFU vs. R347, Mann-Whitney U-test P","[3]; 6206, spleen, 15 mg/kg, FIG. 7F",0.0059
same,dissemination to the spleen and kidneys,[3]; [7],effective at reducing P. aeruginosa dissemination to the spleen and kidneys
same,organ burden,[3]; [7],reduced organ burden
same,"viable CFU vs. R347, Mann-Whitney U-test P","[3]; 6294 ~1×10^7 CFU, lung, 1 mg/kg, FIG. 7E",0.0002
same,"viable CFU vs. R347, Mann-Whitney U-test P","[3]; 6294 ~1×10^7 CFU, lung, 5 mg/kg, FIG. 7E",0.0004
same,"viable CFU vs. R347, Mann-Whitney U-test P","[3]; 6294 ~1×10^7 CFU, lung, 15 mg/kg, FIG. 7E",0.0011
same,"viable CFU vs. R347, Mann-Whitney U-test P","[3]; 6294 ~1×10^7 CFU, spleen, 5 mg/kg, FIG. 7E",0.0014
same,OPK activity (killing of PAO1.lux),[4],superior OPK activity
same,Inflammatory Infiltrate,[5]; [8],PMN 2-3+
same,Involved Lung Surface Area,[5]; [8],50%
same,Overall Impression,[5]; [8],Broncho interstitial pneumonia
same,Overall Impression,"[5]; Table 6A, BALB/c mice, strain 6294 1.33×10^7 CFU, 0.2 mg/kg (combination 0.1 mg/kg ea)",Broncho interstitial pneumonia
same,Hemorrhage (extent),[5]; [9],Extensive
same,Inflammatory Infiltrate,[5]; [9],PMN 3+
same,Involved Lung Surface Area,[5]; [9],"(57%), mod epithelial injury,"
same,Overall Impression,"[5]; Table 6B, BALB/c mice, strain 6294 1.7×10^7 CFU, 0.2 mg/kg (combination 0.1 mg/kg ea)",Broncho interstitial pneumonia
same,Bacteria,[5]; [10],Neg-2+
same,Inflammatory Infiltrate,[5]; [10],PMN 2+
same,Involved Lung Surface Area,[5]; [10],"(40%), mod epithelial injury,"
same,Overall Impression,"[5]; Table 7, BALB/c mice, strain 6206 9.25×10^5 CFU, 0.2 mg/kg (combination 0.1 mg/kg ea)",Broncho interstitial pneumonia
same,Bacteria,[5]; [11],Neg-1+
same,Inflammatory Infiltrate,[5]; [11],PMN 2+
same,Involved Lung Surface Area,[5]; [11],"(36%), mild epithelial injury,"
same,corneal pathology and bacterial counts vs negative control-treated animals,"[6]; 6077, antibody 24 hours prior to infection, FIG. 8A-D, F-G",significantly less pathology and reduced bacterial counts in total eye homogenates
same,"Cam-003 (45 mg/kg) vs. WapR-004 (15 mg/kg), Mann-Whitney U-test P",[6]; FIG. 8F-G,0.0025
same,"Cam-003 (45 mg/kg) vs. WapR-004 (45 mg/kg), Mann-Whitney U-test P",[6]; FIG. 8F-G,0.018
same,"WapR-004 (45 mg/kg) vs. WapR-004 (15 mg/kg), Mann-Whitney U-test P",[6]; FIG. 8F-G,0.1331
